Data taken from PMC11094781 (Protein Science : A Publication of the Protein Society, 2024).

Tests used:
TkTusA = target: T1, TkTusA (Thioalkalivibrio sp. K90mix, UniProt D3SF79); assay: MALDI-TOF mass shift; type: biochemical; conditions: […] tetrathionate, […] Tris-HCl pH […]; covalent
T1 sequence (D3SF79 2-76): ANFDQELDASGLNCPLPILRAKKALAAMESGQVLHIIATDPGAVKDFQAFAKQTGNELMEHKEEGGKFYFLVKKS

[1] = target: DsrE3B from Thioalkalivibrio sp. K90mix (Thioalkalivibrio sp. K90mix); assay: SEC
[2] = target: DsrE3C from Hyphomicrobium denitrificans (Hyphomicrobium denitrificans); assay: SEC

In the case of `O=S(=O)(O)SSS(=O)(=O)O` [tetrathionate], the MALDI-TOF mass shift (TkTusA) is reported as “TusA proteins from bacteria that were examined in this study displayed reaction with tetrathionate”.

Work on “DsrE3B from Thioalkalivibrio sp. K90mix (natural protein)” yielded a stoichiometry N [1] of 3.

With “DsrE3C from Hyphomicrobium denitrificans (natural protein)” the stoichiometry N [2] was 3.
